In patent US5858678, “Apoptosis-regulating proteins” (St. Louis University, dated 1999):

T1: yeast SNF1 protein bait (yeast, UniProt P06782)
T1 sequence: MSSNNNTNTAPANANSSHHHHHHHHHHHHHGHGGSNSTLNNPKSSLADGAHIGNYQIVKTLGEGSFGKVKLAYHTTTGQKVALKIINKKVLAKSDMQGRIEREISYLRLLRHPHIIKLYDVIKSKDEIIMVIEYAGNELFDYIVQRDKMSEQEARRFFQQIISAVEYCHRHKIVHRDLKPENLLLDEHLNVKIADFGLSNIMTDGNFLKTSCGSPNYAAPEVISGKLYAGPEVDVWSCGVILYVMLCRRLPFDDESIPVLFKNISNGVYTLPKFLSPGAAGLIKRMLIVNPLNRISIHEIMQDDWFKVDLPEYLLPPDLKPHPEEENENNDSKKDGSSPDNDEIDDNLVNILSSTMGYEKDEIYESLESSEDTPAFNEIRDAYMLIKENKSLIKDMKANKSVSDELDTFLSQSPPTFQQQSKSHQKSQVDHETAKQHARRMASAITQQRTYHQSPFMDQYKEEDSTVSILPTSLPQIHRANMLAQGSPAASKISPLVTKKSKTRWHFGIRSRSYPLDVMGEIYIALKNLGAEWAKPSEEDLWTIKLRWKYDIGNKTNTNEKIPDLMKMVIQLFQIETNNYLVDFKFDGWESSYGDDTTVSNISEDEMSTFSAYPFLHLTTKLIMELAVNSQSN

B1: Nip2 (19K-interacting protein 2), protein coded by cDNA clone 44, tagged with the GAL4 activation domain (other)
chain: MEGVELKEEWQDEDFPIPLPEDDSIEADILAITGPEDQPGSLEVNGNKVRKKLMAPDISLTLDPSDGSVLSDDLDESGEIDLDGLDTPSENSNEFEWEDDLPKPKTTEVIRKGSITEYTAAEEKEDGRRWRMFRIGEQDHRVDMKAIEPYKKVISHGGYYGDGLNAIVVFAVCFMPESSQPNYRYLMDNLFKYVIGTLELLVAENYMIVYLNGATTRRKMPSLGWLRKCYQQIDRRLRKNLKSLIIVHPSWFIRTLLAVTRPFISSKFSQKIRYVFNLAELAEL
B2: Nip1 (19K-interacting protein 1), protein coded by cDNA clone 22, tagged with the GAL4 activation domain (other)
chain: PQDVHVRICNQEIVKFDLEVKALIQDIRDCSGPLSALTELNTKVKEKFQQLRHRIQDLEQLAKEQDKESEKQLLLQEVENHKKQMLSNQASWRKANLTCKIAIDNLEKAELLQGGDLLRQRKTTKESLAQTSSTITESLMGISRMMAQQVQQSEEAMQSLVTSSRTILDANEEFKSMSGTIQLGRKLITKYNRRELTDKLLIFLALRLFLATVLYIVKKRLFPFL

Legend:
[1] = molecular target: T1, yeast SNF1 protein bait; experiment: yeast two-hybrid in strain Y153, X-gal (W = White)
Experimental: To determine the specificity of the two hybrid interaction, the three clones, 22, 44 and 91, were tested against baits expressing several heterologous proteins (Table 1). Among the various heterologous protein baits used, the adenovirus E3 11.6 kD protein is of particular interest as that protein localizes on the nuclear envelope region and has an internal hydrophobic domain like the E1B 19 kD protein (Scaria et al., 1992).
B = Blue W = White [@]Interactions with all baits except the yeast SNF1 protein were carried out in yeast Strain GGY1::171. Interaction with SNF1 was carried out in yeast strain Y153. *Colonies which appeared on -his, -trp, -leu plates after 6–8 days. Results of X-gal staining are indicated as B, blue; W, white; or ND, not done. The heterologous baits pLAM5 (human lamin) and pAS-SNF1 (yeast SNF1) have been described (Bartel et al., 1993, Durfee et al., 1993). Baits pHIV-1 Rev, pHIV-1 Tat, pHIV-1 Nef and pHTLV-1 Rex expressing the various HIV or HTLV regulating proteins were constructed as described herein and obtained from Cleta D'Sa Eipper and T. Subramanian, St. Louis University Medical Center, St. Louis, MO.

[2] = molecular target: GAL4 DNA binding domain alone (vectors pMA424 or pAS1) (yeast, UniProt P04386); experiment: yeast two-hybrid with the empty GAL4 DNA binding domain vectors
[3] = molecular target: human Bax (two-hybrid partner) (human, UniProt Q07812); experiment: yeast two-hybrid

| Binder | binding result [1] | binding result [2] | binding result [3] |
| --- | --- | --- | --- |
| B1 | no binding | no binding |  |
| B2 |  | no binding | no binding |
